Experimental data published in US20160033516A1 (SALK INSTITUTE FOR BIOLOGICAL STUDIES, published 2016).

B1: anti-3-pHis mAb SC39-4 (antibody, V domains shown, not shown: a dimerising Fc or GST)
VH: ESGGRLVTPGGSLTLTCTVSGFSLSRYNMGWVRQAPGKGLEWIGWIPFRGSLKYATWATGRFTISRTSTTVDLRMTGLTAADTATYFCVRSSDGFDLWGPGTLVTVSS
VL: QFVMTQTPASVEAVVGGTVTIKCQASRDTGDGLIWYQQKPGQPPKRLIYKASTVASGVPSRFKGRGSGTDFTLTISDLECADAATYYCHSNFYNRWTYGNAFGGGTEVVVKG
notes: Rabbit hybridoma monoclonal IgG, used as whole IgG (free or crosslinked to protein-A agarose)

Assays:
[1] = target: SCS (succinyl-CoA synthetase) in mammalian cell lysates (human) (UniProt P53597); test: SILAC LC-MS/MS of mAb column eluate E2, FLAG-NME1 293 lysate, untreated over acid/heat-treated
[2] = target: NME1 in lysates of FLAG-NME1 HEK 293 cells (human) (UniProt P15531); test: as above
[3] = target: YWHAB in lysates of FLAG-NME1 HEK 293 cells (human) (UniProt P31946); test: as above
[4] = target: PGAM, endogenous, in lysates of FLAG-NME1 HEK 293 cells (human) (UniProt P18669); test: as above
[5] = target: GAPDH in lysates of FLAG-NME1 HEK 293 cells (human) (UniProt P04406); test: as above
[6] = target: TCP1 in lysates of FLAG-NME1 HEK 293 cells (human) (UniProt P17987); test: as above
[7] = target: Histone H4 in lysates of FLAG-NME1 HEK 293 cells (human) (UniProt P62805); test: as above
[8] = target: ACLY (ATP-citrate lyase) in mammalian cell lysates (human) (UniProt P53396); test: as above
[9] = target: TUBB in lysates of FLAG-NME1 HEK 293 cells (human) (UniProt P07437); test: as above
[10] = target: RPS3A in lysates of FLAG-NME1 HEK 293 cells (human) (UniProt P61247); test: as above
[11] = target: NME2 in lysates of FLAG-NME1 HEK 293 cells (human) (UniProt P22392); test: as above
[12] = target: LDHA in lysates of FLAG-NME1 HEK 293 cells (human) (UniProt P00338); test: as above
[13] = target: Histone H4 H18 peptide GAKR-X-RKVL, X = 1-pTza (mammalian); test: synthetic peptide dot blot array
[14] = target: GNB1 H266 peptide MTYS-X-DNII, X = 1-pTza (mammalian); test: synthetic peptide dot blot array
[15] = target: NME1 H118 peptide RNII-X-GSDS, X = 1-pTza (mammalian); test: synthetic peptide dot blot array
[16] = target: ACLY-like H760 peptide AGAG-X-AGAG, X = 1-pTza (mammalian); test: synthetic peptide dot blot array
[17] = target: NME1 in lysates of FLAG-NME1 HEK 293 cells (human) (UniProt P15531); test: SILAC LC-MS/MS of mAb column eluate E1, FLAG-NME1 293 lysate, untreated over acid/heat-treated
[18] = target: GAPDH in lysates of FLAG-NME1 HEK 293 cells (human) (UniProt P04406); test: as above
[19] = target: TCP1 in lysates of FLAG-NME1 HEK 293 cells (human) (UniProt P17987); test: as above
[20] = target: Histone H4 in lysates of FLAG-NME1 HEK 293 cells (human) (UniProt P62805); test: as above
[21] = target: ACLY (ATP-citrate lyase) in mammalian cell lysates (human) (UniProt P53396); test: as above
[22] = target: TUBB in lysates of FLAG-NME1 HEK 293 cells (human) (UniProt P07437); test: as above
[23] = target: RPS3A in lysates of FLAG-NME1 HEK 293 cells (human) (UniProt P61247); test: as above
[24] = target: NME2 in lysates of FLAG-NME1 HEK 293 cells (human) (UniProt P22392); test: as above
[25] = target: LDHA in lysates of FLAG-NME1 HEK 293 cells (human) (UniProt P00338); test: as above
[26] = target: 506 proteins enriched by at least 2-fold in 3-pHis column elutions E1-E3; test: SILAC LC-MS/MS of mAb column eluates E1-E3, FLAG-NME1 293 lysate
[27] = target: GNB1 in lysates of FLAG-NME1 HEK 293 cells (human, UniProt P62873 2-340, phosphohistidine, annotated site printed H226 in Table 1 (H266 elsewhere)); test: SILAC LC-MS/MS of mAb column eluate E2, FLAG-NME1 293 lysate, untreated over acid/heat-treated
Protocol: A dramatic decrease of pHis in the heavy lysates was confirmed by immunoblotting. Both lysates were neutralized, diluted (1:5 to 1 M urea, pH 8), mixed together and one half was passed over the 1-pHis mAb column while the other half was passed over the 3-pHis mAb column. LC-MS/MS analysis was performed on tryptic peptides derived from proteins that eluted off the columns at pH 11. A SILAC ratio (light/heavy) was calculated for each peptide to determine which proteins were enriched in the untreated, light vs. heavy lysates that had been treated to reduce pHis.
After crosslinking, pHis mAb resins (˜750 μl each) were packed in 10 ml chromatography columns (BioRad) and stored at 4° C. in or equilibrated with Wash/Binding Buffer (50 mM Tris, 30 mM sodium carbonate pH 8 (prepared by dilution of 100 mM sodium carbonate buffer pH 10 with H₂O and 1 M Tris pH 7)). Stable isotope labeling by amino acids in cell culture (SILAC) was performed on FLAG-NME1 293 cells which were metabolically labeled with Arg (¹³C₆/¹⁵N₄) and Lys (¹³C₆). These “heavy” labeled cells were used as an internal negative control for pHis mAb binding. Non-labeled, “light” FLAG-NME1 293 cells were cultured in parallel. For cell lysis, precautions were taken to preserve pHis and avoid salts and detergents that can interfere with downstream MS analysis. […]

[28] = target: YWHAB in lysates of FLAG-NME1 HEK 293 cells (human) (UniProt P31946); test: SILAC LC-MS/MS of mAb column eluate E1, FLAG-NME1 293 lysate, untreated over acid/heat-treated
[29] = target: PGAM, endogenous, in lysates of FLAG-NME1 HEK 293 cells (human) (UniProt P18669); test: as above

Chain of ACLY (ATP-citrate lyase) in mammalian cell lysates (human) (P53396 whole entry): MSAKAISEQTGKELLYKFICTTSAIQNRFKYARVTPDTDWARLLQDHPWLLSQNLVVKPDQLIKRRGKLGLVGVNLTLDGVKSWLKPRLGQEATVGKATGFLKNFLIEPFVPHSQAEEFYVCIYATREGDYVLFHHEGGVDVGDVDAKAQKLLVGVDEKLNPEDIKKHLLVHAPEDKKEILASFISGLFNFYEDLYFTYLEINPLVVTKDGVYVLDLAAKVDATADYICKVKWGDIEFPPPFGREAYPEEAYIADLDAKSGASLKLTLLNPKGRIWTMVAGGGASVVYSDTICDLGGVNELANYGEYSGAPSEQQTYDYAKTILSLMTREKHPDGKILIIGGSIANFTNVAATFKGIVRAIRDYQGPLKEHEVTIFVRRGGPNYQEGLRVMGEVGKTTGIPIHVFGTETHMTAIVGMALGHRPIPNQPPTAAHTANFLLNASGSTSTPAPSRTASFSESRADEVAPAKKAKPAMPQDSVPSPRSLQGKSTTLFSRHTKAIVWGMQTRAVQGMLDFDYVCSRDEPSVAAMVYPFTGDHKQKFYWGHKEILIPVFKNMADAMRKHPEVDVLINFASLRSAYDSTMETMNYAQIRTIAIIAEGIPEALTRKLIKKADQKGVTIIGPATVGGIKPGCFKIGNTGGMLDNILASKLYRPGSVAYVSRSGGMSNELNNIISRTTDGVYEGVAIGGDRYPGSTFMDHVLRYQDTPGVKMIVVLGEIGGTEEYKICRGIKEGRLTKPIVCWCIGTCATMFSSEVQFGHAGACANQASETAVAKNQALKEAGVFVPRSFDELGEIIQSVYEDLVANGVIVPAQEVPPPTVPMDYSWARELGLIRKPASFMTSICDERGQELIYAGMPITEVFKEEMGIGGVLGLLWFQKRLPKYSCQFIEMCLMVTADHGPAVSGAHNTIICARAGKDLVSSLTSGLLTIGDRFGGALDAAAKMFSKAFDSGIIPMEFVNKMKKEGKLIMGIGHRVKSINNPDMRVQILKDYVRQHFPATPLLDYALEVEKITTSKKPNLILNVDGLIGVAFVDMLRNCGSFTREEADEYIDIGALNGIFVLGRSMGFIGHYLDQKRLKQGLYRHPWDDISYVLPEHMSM
Chain of YWHAB in lysates of FLAG-NME1 HEK 293 cells (human) (P31946 whole entry): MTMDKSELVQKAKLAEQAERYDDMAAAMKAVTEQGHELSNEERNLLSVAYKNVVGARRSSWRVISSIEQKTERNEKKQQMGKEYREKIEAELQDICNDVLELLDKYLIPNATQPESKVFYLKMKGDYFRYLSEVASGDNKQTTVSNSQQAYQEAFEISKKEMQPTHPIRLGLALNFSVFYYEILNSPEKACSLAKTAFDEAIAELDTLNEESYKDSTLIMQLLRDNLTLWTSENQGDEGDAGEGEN
Chain of PGAM, endogenous, in lysates of FLAG-NME1 HEK 293 cells (human) (P18669 2-254 limits assumed): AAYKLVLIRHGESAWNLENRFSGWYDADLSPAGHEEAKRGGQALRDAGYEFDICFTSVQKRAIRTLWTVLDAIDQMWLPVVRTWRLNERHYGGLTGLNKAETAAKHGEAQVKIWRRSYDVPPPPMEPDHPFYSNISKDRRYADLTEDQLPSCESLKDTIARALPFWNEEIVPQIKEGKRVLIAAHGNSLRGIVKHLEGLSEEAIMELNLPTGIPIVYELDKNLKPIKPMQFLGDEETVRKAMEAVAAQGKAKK
Chain of TCP1 in lysates of FLAG-NME1 HEK 293 cells (human) (P17987 whole entry): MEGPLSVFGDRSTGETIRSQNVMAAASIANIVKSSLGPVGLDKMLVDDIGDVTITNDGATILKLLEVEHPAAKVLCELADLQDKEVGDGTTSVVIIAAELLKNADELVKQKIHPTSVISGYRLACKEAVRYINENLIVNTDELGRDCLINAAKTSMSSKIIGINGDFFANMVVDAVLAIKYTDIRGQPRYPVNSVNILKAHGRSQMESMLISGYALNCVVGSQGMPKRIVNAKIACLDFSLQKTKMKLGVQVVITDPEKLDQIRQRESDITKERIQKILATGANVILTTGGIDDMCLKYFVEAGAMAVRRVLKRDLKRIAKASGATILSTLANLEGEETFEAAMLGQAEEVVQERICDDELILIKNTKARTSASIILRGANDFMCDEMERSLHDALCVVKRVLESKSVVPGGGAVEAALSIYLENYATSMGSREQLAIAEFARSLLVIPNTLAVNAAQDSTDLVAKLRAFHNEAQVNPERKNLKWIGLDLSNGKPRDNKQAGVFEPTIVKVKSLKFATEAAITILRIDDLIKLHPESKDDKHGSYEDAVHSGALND
Chain of NME1 in lysates of FLAG-NME1 HEK 293 cells (human) (P15531 2-152 limits assumed): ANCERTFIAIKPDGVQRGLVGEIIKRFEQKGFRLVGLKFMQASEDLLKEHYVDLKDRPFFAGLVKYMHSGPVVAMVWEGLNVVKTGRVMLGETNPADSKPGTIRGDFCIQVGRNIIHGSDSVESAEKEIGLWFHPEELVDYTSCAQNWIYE
Chain of TUBB in lysates of FLAG-NME1 HEK 293 cells (human) (P07437 whole entry): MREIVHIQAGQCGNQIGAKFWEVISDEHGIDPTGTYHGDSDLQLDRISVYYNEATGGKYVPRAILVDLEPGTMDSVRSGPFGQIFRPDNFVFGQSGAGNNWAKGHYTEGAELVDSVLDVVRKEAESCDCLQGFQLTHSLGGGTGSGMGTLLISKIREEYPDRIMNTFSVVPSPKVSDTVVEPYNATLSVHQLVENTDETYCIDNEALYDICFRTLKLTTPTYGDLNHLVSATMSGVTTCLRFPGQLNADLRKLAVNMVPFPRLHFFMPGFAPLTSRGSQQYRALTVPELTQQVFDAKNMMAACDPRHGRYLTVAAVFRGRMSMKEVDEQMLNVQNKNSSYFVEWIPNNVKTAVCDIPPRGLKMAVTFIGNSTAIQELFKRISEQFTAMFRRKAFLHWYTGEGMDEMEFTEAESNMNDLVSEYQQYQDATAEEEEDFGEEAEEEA
Chain of NME2 in lysates of FLAG-NME1 HEK 293 cells (human) (P22392 whole entry): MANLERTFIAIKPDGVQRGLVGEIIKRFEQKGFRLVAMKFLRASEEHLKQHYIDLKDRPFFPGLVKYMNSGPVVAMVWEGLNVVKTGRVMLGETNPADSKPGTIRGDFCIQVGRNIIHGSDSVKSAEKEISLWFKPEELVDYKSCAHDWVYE
Chain of GAPDH in lysates of FLAG-NME1 HEK 293 cells (human) (P04406 2-335 limits assumed): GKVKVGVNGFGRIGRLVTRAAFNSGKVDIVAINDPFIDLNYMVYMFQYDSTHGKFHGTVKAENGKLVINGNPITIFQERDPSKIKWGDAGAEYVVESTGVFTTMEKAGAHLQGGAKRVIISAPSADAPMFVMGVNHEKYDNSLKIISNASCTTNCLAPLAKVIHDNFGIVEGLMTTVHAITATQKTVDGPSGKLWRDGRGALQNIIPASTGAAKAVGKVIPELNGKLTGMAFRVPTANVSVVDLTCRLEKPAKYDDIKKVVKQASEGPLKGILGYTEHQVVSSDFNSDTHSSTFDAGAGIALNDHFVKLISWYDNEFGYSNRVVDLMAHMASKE
Chain of SCS (succinyl-CoA synthetase) in mammalian cell lysates (human) (P53597 41-346): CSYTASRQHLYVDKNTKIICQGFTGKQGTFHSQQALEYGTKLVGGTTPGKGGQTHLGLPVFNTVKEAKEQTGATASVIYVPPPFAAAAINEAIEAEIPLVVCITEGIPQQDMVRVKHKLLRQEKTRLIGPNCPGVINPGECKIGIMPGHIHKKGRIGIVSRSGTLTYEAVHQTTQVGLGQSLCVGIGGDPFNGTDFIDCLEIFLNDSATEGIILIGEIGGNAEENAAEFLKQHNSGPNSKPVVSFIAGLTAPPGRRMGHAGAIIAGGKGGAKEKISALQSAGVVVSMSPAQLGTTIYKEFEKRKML
Chain of GNB1 in lysates of FLAG-NME1 HEK 293 cells (P62873 2-340 limits assumed): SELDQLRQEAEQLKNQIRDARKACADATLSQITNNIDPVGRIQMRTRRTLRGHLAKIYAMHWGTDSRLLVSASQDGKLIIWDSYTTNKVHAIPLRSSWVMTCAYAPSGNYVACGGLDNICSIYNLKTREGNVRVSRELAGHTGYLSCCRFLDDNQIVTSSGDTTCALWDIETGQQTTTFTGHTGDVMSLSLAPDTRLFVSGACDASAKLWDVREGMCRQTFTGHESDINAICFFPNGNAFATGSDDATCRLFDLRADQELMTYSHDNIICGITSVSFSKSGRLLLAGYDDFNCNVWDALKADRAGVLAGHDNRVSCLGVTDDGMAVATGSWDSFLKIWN

| Molecule | SILAC ratio (light/heavy) [2] [fold] | SILAC ratio (light/heavy) [3] [fold] | SILAC ratio (light/heavy) [4] [fold] | SILAC ratio (light/heavy) [5] [fold] | SILAC ratio (light/heavy) [6] [fold] | SILAC ratio (light/heavy) [7] [fold] | SILAC ratio (light/heavy) [8] [fold] | SILAC ratio (light/heavy) [9] [fold] | SILAC ratio (light/heavy) [10] [fold] | SILAC ratio (light/heavy) [12] [fold] | least amount detected [13] [ng] | least amount detected [14] [ng] | least amount detected [15] [ng] | least amount detected [16] [ng] | SILAC ratio (light/heavy) [17] [fold] | SILAC ratio (light/heavy) [18] [fold] | SILAC ratio (light/heavy) [19] [fold] | SILAC ratio (light/heavy) [20] [fold] | SILAC ratio (light/heavy) [21] [fold] | SILAC ratio (light/heavy) [22] [fold] | other results |
| --- | --- | --- | --- | --- | --- | --- | --- | --- | --- | --- | --- | --- | --- | --- | --- | --- | --- | --- | --- | --- | --- |
| anti-1-pHis mAb SC1-1 (antibody) | 51.9 | 2.04 | 4.25 | 4.45 | 5.99 | 9.8 | 7.2 | 4.49 | 9.1 | 6.5 | 20 | 20 | 20 | 20 | 15.1 | 3.4 | 6.1 | 19.1 | 5.29 | 3.55 | SILAC ratio (light/heavy) [1]: 1.68 fold; SILAC ratio (light/heavy) [11]: 56 fold; SILAC ratio (light/heavy) [23]: 7.21 fold; SILAC ratio (light/heavy) [24]: 15.6 fold; SILAC ratio (light/heavy) [25]: 4.18 fold |
| anti-1-pHis mAb SC50-3 (antibody) |  |  |  |  |  |  |  |  |  |  | 20 | 20 | 20 | 20 |  |  |  |  |  |  |  |
| B1 | 2.14 | 1.63 | 2.44 | 3.32 | 3.2 | 17.9 | 2.99 | 2.09 | 4.98 | 3.08 |  |  |  |  | 118 | 4.76 | 5.98 | 22.8 | 11.6 | 4.33 | fold enrichment (SILAC ratio light/heavy) [26]: > 2 fold; SILAC ratio (light/heavy) [27]: 1.21 fold; SILAC ratio (light/heavy) [28]: 7.43 fold; SILAC ratio (light/heavy) [29]: 4.01 fold; SILAC ratio (light/heavy) [23]: 10.4 fold; SILAC ratio (light/heavy) [24]: 3.46 fold; SILAC ratio (light/heavy) [25]: 6.6 fold |
